# Assay results taken from patent US20260209325A1 (SCHOLAR ROCK, published 2026).
# Where a chain is given by its changes, count along the chain named.
# B1: Ab128 (antibody, human IgG4 S228P, kappa, V domains shown)
# VH: EVQLVESGGGLVQPGGSLRLSCTASGFTLSSYSMDWVRQAPGKGLEWVSYITGSGDTTYYADSVKGRFTISRDNAKNTLYLQMNSLRAEDTAVYYCARGFGWISGWAEDYFDYWGQGTLVTVSS
# VL: DIQMTQSPSSLSASVGDRVTITCQASQSVYSYLNWYQQKPGKAPKLLIYGASRLEGGVPSRFSGSGSGTDFTFTISSLQPEDIATYYCQQHSTDQRTFGGGTKVEIKR
# B2: Ab141 (antibody, human IgG4 S228P, kappa, V domains shown)
# VH: EVQLVESGGGLVQPGGSLRLSCAASGFTFSSYGMSWVRQAPGKGLELVASFTGSGGAYYPDSVKGRFTISRDNAKNSLYLQMNSLRAEDTAVYYCARDLLIRFLEWSHYYGMDVWGQGTTVTVSS
# VL: DIVMTQSPLSLPVTPGEPASISCRSSQSLLHSSGHNFLHWYLQKPGQSPQLLIYEVSNRVSGVPDRFSGSGSGTDFTLKISRVEAEDVGVYYCMQQTQYPGTFGGGTKVEIKR
# B3: Ab101 (antibody, human IgG4 S228P, kappa, V domains shown)
# VH: EVQLVESGGGLVQPGGSLRLSCAASGSAFSSYGMSWVRQAPGKGLELVASINSNGGSTYYPDSVKGRFTISRDNAKNSLYLQMNSLRAEDTAVYYCARDLLVRFLEWSHYYGMDVWGQGTTVTVSS
# VL: B2 VL with G101P
# B4: Ab103 (antibody, human IgG4 S228P, kappa, V domains shown)
# VH: B3 VH with S27Y, A28T, N52T, S53G, N54D, G55A, S57R, L100T
# VL: B2 VL with G101P
# B5: Ab107 (antibody, human IgG4 S228P, kappa, V domains shown)
# VH: B3 VH with L100Q
# VL: B2 VL with E55A, V56G, V60P, M94A, Q95H, Q96A, Y99L, G101H
# B6: Ab108 (antibody, human IgG4 S228P, kappa, V domains shown)
# VH: B3 VH with R103G, E106Q
# VL: B2 VL with G101P
# B7: Ab115 (antibody, human IgG4 S228P, kappa, V domains shown)
# VH: QVQLVQSGAEVKKPGASVKVSCKVSGYAFTNYNIHWVRQAPGKGLEWMGGINPRTGGTIYAQKFQGRVTMTEDTSTDTAYMELSSLKSEDTAVYYCAKDIYTGVAVAGSGMDYWGQGTLVTVSS
# VL: DIQMTQSPSSVSASVGDRVTITCRASQGISTHLAWYQQKPGKAPKLLIYGASNLESGVPSRFSGSGSGTDFTLTISSLQPEDFANYYCQQANSFPWTFGGGTKVEIKR
# B8: Ab129 (antibody, human IgG4 S228P, kappa, V domains shown)
# VH: QVQLVQSGAEVKKPGASVKVSCKVSGFNYPRSAIHWVRQAPGKGLEWMGGINPSGEATIYAQKFQGRVTMTEDTSTDTAYMELSSLKSEDTAVYYCARDSSPQWLVTAGVYFYGMDVWGQGTTVTVSS
# VL: B7 VL with G28S, T31N, H32W, G50H, N53T, E55Q, A91Y, N92S, F94T
# B9: Ab114 (antibody, human IgG4 S228P, kappa, V domains shown)
# VH: QVQLVQSGAEVKKPGASVKVSCKVSGGTFRSYTIHWVRQAPGKGLEWMGGMNPSSGHTIYAQKFQGRVTMTEDTSTDTAYMELSSLKSEDTAVYYCARGLDYGEGYYYYGMDVWGQGTTVTVSS
# VL: DIQMTQSPSSVSASVGDRVTITCRASQGISESLAWYQQKPGKAPKLLIYSASSLESGVPSRFSGSGSGTDFTLTISSLQPEDFANYYCQQGYSSPPYTFGGGTKVEIKR
# B10: Ab124 (antibody, human IgG4 S228P, kappa, V domains shown)
# VH: QVQLQESGPGLVKPSQTLSLTCTVSGGSISSSPYSWSWIRQPPGKGLEWIGYVDLAGSTDYNPSLKSRVTMSVDTSKNQFSLKVNSVTAADTAVYYCARALSSRSSEWLLDQYTMDVWGQGTTVTVSS
# VL: EIVMTQSPATLSLSPGERATLSCRASQSIGINLAWYQQKPGQAPRLLIYGVSNRATGIPARFSGSGSGTDFTLTISSLEPEDFAVYYCQQYGTARLTFGGGTKVEIKR
# B11: Ab134 (antibody, human IgG4 S228P, kappa, V domains shown)
# VH: B3 VH with R103E, E106K
# VL: B2 VL with G101P
# Biological target: T1, murine pro-myostatin (mouse, UniProt O08689 25-376, biotinylated (in the SPR assay))
# T1 construct: also called proGDF8 (mouse); mouse pro-myostatin
# Assay: SPR Biacore 8K, biotin-antigen captured
Kd [nM],koff [s⁻¹],kon [M⁻¹ s⁻¹],Binder
0.716,0.000655,914000,B1
0.0531,0.000156,2.93e+06,B2
0.083,0.00036,4.34e+06,B3
0.379,0.00221,5.83e+06,B4
0.057,0.000455,8.04e+06,B5
0.218,0.00183,8.42e+06,B6
3.05,0.00137,450000,B7
4.24,0.000496,117000,B8
6.29,0.0208,3.31e+06,B9
3.26,0.000454,139000,B10

# Biological target: T2, human pro-myostatin (human, UniProt O14793 24-375, biotinylated (in the SPR assay))
# T2 construct: Disulfide-linked homodimer; also called proGDF8 (human)
# Assay: SPR Biacore 8K, biotin-antigen captured
Kd [nM],koff [s⁻¹],kon [M⁻¹ s⁻¹],Binder
0.365,0.000463,1.27e+06,B1
0.04,0.000112,2.79e+06,B2
0.078,0.000339,4.37e+06,B3
0.261,0.00151,5.78e+06,B4
0.06,0.000319,5.34e+06,B5
0.177,0.00105,5.92e+06,B6
3.04,0.00123,406000,B7
2.2,0.000307,140000,B8
1.74,0.00735,4.23e+06,B9

# Biological target: T3, cyno pro-myostatin (cynomolgus monkey, Biotinylated for capture in the SPR assay (site not stated). The native form is a disulfide-linked homodimer, partly furin-cleaved; one chain is given.)
# T3 construct: also called proGDF8 (cynomolgus); cynomolgus monkey pro-myostatin
# Assay: SPR Biacore 8K, biotin-antigen captured
Kd [nM],koff [s⁻¹],kon [M⁻¹ s⁻¹],Binder
0.814,0.000736,905000,B1
0.0369,0.000103,2.8e+06,B2
0.065,0.000317,4.84e+06,B3
0.252,0.00154,6.09e+06,B4
0.054,0.000316,5.85e+06,B5
0.159,0.00102,6.39e+06,B6
3.13,0.00139,443000,B7
1.3,0.000534,411000,B8
2.6,0.00908,3.49e+06,B9

# Biological target: T4, recombinant human latent myostatin (human, UniProt O14793 24-375, biotinylated (in the Octet pH assay only))
# Assay: cell-based or functional assay
row,mTLL2 IC50 [nM],Binder
1,0.139,B2

# Biological target: T4, recombinant human latent myostatin
# Assay: cell-based or functional assay
# Remark: another data set of the same source
row,IC50 (nM) Latent + mTLL2 [nM],Binder
1,1.03,B1
2,0.139,B2
3,0.128,B3
4,0.506,B4
5,0.135,B5
6,0.631,B11
7,0.237,B6
8,2.94,B7
9,3.89,B8
10,3.3,B9
11,1.43,B10

# Biological target: T2, human pro-myostatin
# Assay: cell-based or functional assay
row,IC50 (nM) Pro + Furin [nM],Binder
1,0.774,B1
2,0.251,B3
3,0.413,B4
4,0.195,B5
5,0.27,B6
6,6.01,B7
7,4.31,B8
8,2.8,B9

# Biological target: T2, human pro-myostatin
# Assay: Ab KD, summary Table 11; method and antigen not stated there
row,Kd [nM],Binder
1,0.04,B2

# Biological target: mouse GDF-11 (mouse, UniProt Q9Z1W4 297-405, limits assumed)
# Sequence (Q9Z1W4 297-405 limits assumed): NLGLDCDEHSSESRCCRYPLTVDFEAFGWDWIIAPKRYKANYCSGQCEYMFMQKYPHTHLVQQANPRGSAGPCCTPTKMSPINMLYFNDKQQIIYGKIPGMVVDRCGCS
# Assay: plate binding assay, OD 450 nm, one antibody concentration that is not given, on Mu-GDF-11 (method not described in the text)
row,binding result,Binder
1,no binding,B1
2,no binding,B7
3,no binding,B9

# Biological target: human GDF-11 (human, UniProt O95390 299-407, limits assumed)
# Sequence (O95390 299-407 limits assumed): as the sequence (Q9Z1W4 297-405 limits assumed) above
# Assay: plate binding assay, OD 450 nm, one antibody concentration that is not given, on Hu-GDF-11 (method not described in the text)
row,binding result,Binder
1,no binding,B1
2,no binding,B7
3,no binding,B9
